Bounds are passed on as bounds.

This passage reports IC50 results from US20100035363A1.

Assay [1] concerns the target biotin-labeled RSV-IQN57 (Respiratory Syncytial Virus (F1 part)). In words: time-resolved FRET competition, IQN57-APC/C45-Eu assay; competitor C45-Eu.
In assay [2] the target is biotin-labeled RSV-IQN51 (Respiratory Syncytial Virus (F1 part)). Briefly: time-resolved FRET competition, IQN51-APC/C39-Eu assay; competitor C39-Eu.

On to HIV-C34 (peptide), for which the IC50 in assay [1] and in assay [2] was above 10 µM throughout.
In the case of HIV-T20 (peptide), the concentration for half-maximal inhibition (IC50) in assay [1] and in assay [2] was above 10 µM throughout.
